{"source": "patent US20250186597A1", "about": "“TARGETED IMMUNE ACTIVATION WITH IL-18 IMMUNOCYTOKINES” (BRIGHT PEAK THERAPEUTICS AG, priority 2023, published 2025)", "assay_in_all_cases": "cell-based or functional assay", "key": {"[1]": {"target": "IL-18 polypeptide C151 (V11I, D35A, C38A, K53A, C76A, C127A) (human) (UniProt Q14116)"}, "[2]": {"target": "IL-18 polypeptide of SEQ ID NO: 38 (E06K) (human) (UniProt Q14116)"}, "[3]": {"target": "IL-18 polypeptide C167 (V11I, C38A, C76A, S105I, C127A) (human) (UniProt Q14116)"}, "[4]": {"target": "IL-18 polypeptide of SEQ ID NO: 52 (E06K, T63A) (human) (UniProt Q14116)"}, "[5]": {"target": "IL-18 polypeptide of SEQ ID NO: 36 (K53A) (human) (UniProt Q14116)"}, "[6]": {"target": "IL-18 polypeptide C149 (V11I, E31A, C38A, K53A, C76A, C127A) (human) (UniProt Q14116)"}, "[7]": {"target": "IL-18 polypeptide C153 (V11I, D37A, C38A, K53A, C76A, C127A) (human) (UniProt Q14116)"}, "[8]": {"target": "IL-18 polypeptide C158 (V11I, C38A, K53A, C76A, G108A, C127A) (human) (UniProt Q14116)"}, "[9]": {"target": "IL-18 polypeptide C166 (V11I, C38A, S55T, C76A, C127A) (human) (UniProt Q14116)"}, "[10]": {"target": "IL-18 polypeptide C150 (V11I, T34A, C38A, K53A, C76A, C127A) (human) (UniProt Q14116)"}, "[11]": {"target": "IL-18 polypeptide of SEQ ID NO: 5 (E6K, V11I, C38A, K53A, T63A, C68A, C76A, M86C, C127A) (human) (UniProt Q14116)"}, "[12]": {"target": "IL-18 polypeptide C159 (V11I, C38A, K53A, C76A, H109A, C127A) (human) (UniProt Q14116)"}, "[13]": {"target": "IL-18 polypeptide of SEQ ID NO: 59 (E6K, C38A, K53A) (human) (UniProt Q14116)"}, "[14]": {"target": "IL-18 polypeptide of SEQ ID NO: 34 (E06K, K53A, S55A) (human) (UniProt Q14116)"}, "[15]": {"target": "IL-18 polypeptide C164 (V11I, C38A, S55H, C76A, C127A) (human) (UniProt Q14116)"}, "[16]": {"target": "IL-18 polypeptide of SEQ ID NO: 55 (K53A, T63A, C38S, C68S, C76S, C127S, K70C) (human) (UniProt Q14116)"}, "[17]": {"target": "IL-18 polypeptide C152 (V11I, S36A, C38A, K53A, C76A, C127A) (human) (UniProt Q14116)"}, "[18]": {"target": "IL-18 polypeptide of SEQ ID NO: 43 (E06K, K53A, S55A, Y01G) (human) (UniProt Q14116)"}, "[19]": {"target": "IL-18 polypeptide of SEQ ID NO: 40 (E06K, S55A) (human) (UniProt Q14116)"}, "[20]": {"target": "IL-18 polypeptide of SEQ ID NO: 50 (E06K, K53A, T63A) (human) (UniProt Q14116)"}, "[21]": {"target": "IL-18 polypeptide of SEQ ID NO: 31 (C38A, C76A, C127A) (human) (UniProt Q14116)"}, "[22]": {"target": "IL-18 polypeptide of SEQ ID NO: 42 (E06K, K53A, S55A, T63A) (human) (UniProt Q14116)"}, "[23]": {"target": "IL-18 polypeptide of SEQ ID NO: 39 (E06K, K53A) (human) (UniProt Q14116)"}, "[24]": {"target": "native IL-18 wild-type (SEQ ID NO: 1) (human) (UniProt Q14116)"}, "[25]": {"target": "IL-18 polypeptide of SEQ ID NO: 46 (E06K, K53A, S55A, M51G) (human) (UniProt Q14116)"}, "[26]": {"target": "IL-18 polypeptide C162 (K8E, V11I, C38A, C76A, Q103R, C127A) (human) (UniProt Q14116)"}, "[27]": {"target": "IL-18 polypeptide of SEQ ID NO: 9 (E6K, C38A, K53A, C68A, D98C) (human) (UniProt Q14116)"}, "[28]": {"target": "IL-18 polypeptide C163 (V11I, C38A, C76A, Q103K, C127A) (human) (UniProt Q14116)"}, "[29]": {"target": "IL-18 polypeptide of SEQ ID NO: 57 (E6K, C38S, K53A) (human) (UniProt Q14116)"}, "[30]": {"target": "IL-18 polypeptide C148 (F2A, V11I, C38A, K53A, C76A, C127A) (human) (UniProt Q14116)"}, "[31]": {"target": "IL-18 polypeptide of SEQ ID NO: 4 (E6K, C38A, K53A, C68A, M86C) (human) (UniProt Q14116)"}, "[32]": {"target": "IL-18 polypeptide C155 (V11I, C38A, D40A, K53A, C76A, C127A) (human) (UniProt Q14116)"}, "[33]": {"target": "IL-18 polypeptide of SEQ ID NO: 54 (E06K, K53A, C38S, C68S, C76S, C127S, K70C) (human) (UniProt Q14116)"}}, "data": [{"substance": "Fc fused human IL-18 binding protein isoform a (IL-18BPa; R&D systems, Cat #119-BP) (from UniProt O95998 31-194) (Fc fusion)", "values": [{"measurement": "IC50 of inhibition by IL-18BP of IFNγ stimulation in NK92 cells", "setting": "[1]", "result": 3.62, "unit": "nM"}, {"measurement": "IC50 of inhibition by IL-18BP of IFNγ stimulation in NK92 cells", "setting": "[2]", "result": 7.79, "unit": "nM"}, {"measurement": "IC50 of inhibition by IL-18BP of IFNγ stimulation in NK92 cells", "setting": "[3]", "result": 0.809, "unit": "nM"}, {"measurement": "IC50 of inhibition by IL-18BP of IFNγ stimulation in NK92 cells", "setting": "[4]", "result": 47.1, "unit": "nM"}, {"measurement": "IC50 of inhibition by IL-18BP of IFNγ stimulation in NK92 cells", "setting": "[5]", "result": 27.3, "unit": "nM"}, {"measurement": "IC50 of inhibition by IL-18BP of IFNγ stimulation in NK92 cells", "setting": "[6]", "result": 1.17, "unit": "nM"}, {"measurement": "IC50 of inhibition by IL-18BP of IFNγ stimulation in NK92 cells", "setting": "[7]", "result": 2.22, "unit": "nM"}, {"measurement": "IC50 of inhibition by IL-18BP of IFNγ stimulation in NK92 cells", "setting": "[8]", "result": 3.98, "unit": "nM"}, {"measurement": "IC50 of inhibition by IL-18BP of IFNγ stimulation in NK92 cells", "setting": "[9]", "result": 0.44, "unit": "nM"}, {"measurement": "IC50 of inhibition by IL-18BP of IFNγ stimulation in NK92 cells", "setting": "[10]", "result": 21.3, "unit": "nM"}, {"measurement": "IC50 of inhibition by IL-18BP of IFNγ stimulation in NK92 cells", "setting": "[11]", "result": 62.4, "unit": "nM"}, {"measurement": "IC50 of inhibition by IL-18BP of IFNγ stimulation in NK92 cells", "setting": "[12]", "result": 1.81, "unit": "nM"}, {"measurement": "IC50 of inhibition by IL-18BP of IFNγ stimulation in NK92 cells", "setting": "[13]", "result": 654, "unit": "nM"}, {"measurement": "IC50 of inhibition by IL-18BP of IFNγ stimulation in NK92 cells", "setting": "[14]", "result": 229, "unit": "nM"}, {"measurement": "IC50 of inhibition by IL-18BP of IFNγ stimulation in NK92 cells", "setting": "[15]", "result": 0.456, "unit": "nM"}, {"measurement": "IC50 of inhibition by IL-18BP of IFNγ stimulation in NK92 cells", "setting": "[16]", "result": "> 1000", "unit": "nM"}, {"measurement": "IC50 of inhibition by IL-18BP of IFNγ stimulation in NK92 cells", "setting": "[17]", "result": 7.85, "unit": "nM"}, {"measurement": "IC50 of inhibition by IL-18BP of IFNγ stimulation in NK92 cells", "setting": "[18]", "result": 27.8, "unit": "nM"}, {"measurement": "IC50 of inhibition by IL-18BP of IFNγ stimulation in NK92 cells", "setting": "[19]", "result": 15, "unit": "nM"}, {"measurement": "IC50 of inhibition by IL-18BP of IFNγ stimulation in NK92 cells", "setting": "[20]", "result": "> 1000", "unit": "nM"}, {"measurement": "IC50 of IL-18BP-mediated inhibition of IFNγ secretion by NK92 cells", "setting": "[21]", "result": 0.282, "unit": "nM"}, {"measurement": "IC50 of inhibition by IL-18BP of IFNγ stimulation in NK92 cells", "setting": "[22]", "result": 1060, "unit": "nM"}, {"measurement": "IC50 of inhibition by IL-18BP of IFNγ stimulation in NK92 cells", "setting": "[23]", "result": "> 703", "unit": "nM"}, {"measurement": "IC50 of IL-18BP-mediated inhibition of IFNγ secretion by NK92 cells", "setting": "[24]", "result": 0.781, "unit": "nM"}, {"measurement": "IC50 of inhibition by IL-18BP of IFNγ stimulation in NK92 cells", "setting": "[24]", "result": 1.47, "unit": "nM"}, {"measurement": "IC50 of inhibition by IL-18BP of IFNγ stimulation in NK92 cells", "setting": "[25]", "result": 0.189, "unit": "nM"}, {"measurement": "IC50 of inhibition by IL-18BP of IFNγ stimulation in NK92 cells", "setting": "[26]", "result": 7.29, "unit": "nM"}, {"measurement": "IC50 of inhibition by IL-18BP of IFNγ stimulation in NK92 cells", "setting": "[27]", "result": 961, "unit": "nM"}, {"measurement": "IC50 of inhibition by IL-18BP of IFNγ stimulation in NK92 cells", "setting": "[28]", "result": 0.823, "unit": "nM"}, {"measurement": "IC50 of inhibition by IL-18BP of IFNγ stimulation in NK92 cells", "setting": "[29]", "result": 146, "unit": "nM"}, {"measurement": "IC50 of inhibition by IL-18BP of IFNγ stimulation in NK92 cells", "setting": "[30]", "result": 5.05, "unit": "nM"}, {"measurement": "IC50 of inhibition by IL-18BP of IFNγ stimulation in NK92 cells", "setting": "[31]", "result": 396, "unit": "nM"}, {"measurement": "IC50 of inhibition by IL-18BP of IFNγ stimulation in NK92 cells", "setting": "[32]", "result": 3.23, "unit": "nM"}, {"measurement": "IC50 of inhibition by IL-18BP of IFNγ stimulation in NK92 cells", "setting": "[33]", "result": 23.5, "unit": "nM"}]}]}
